Laboratory results reported in article PMC6145688 (2018).

Target: Recombinant active autotaxin-β (ATXβ) (Homo sapiens (Human), UniProt Q13822)
Experiment: SPR

binding result	Binder
no binding	GALPDDEDVVGPGQESDDFEL (protein) [SDC4-derived peptide GL21]
no binding	RETEVIDPQDLLEGRYFSGALPDDED (protein) [SDC4-derived peptide RD26]
no binding	SDC4-derived peptide VS52 (protein) VHPLVPLDNHIPERAGSGSQVPTEPKKLEENEVIPKRISPVEESEDVSNKVS
